In the supplement of paper PMC12764529:
± gives the half width of the 95% confidence interval.

Legend:
[1] = folding stability dG unfold from chymotrypsin proteolysis; higher = more stable
Summary of the method: (§1)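 Only designs with AlphaFold2 dimer inter-PAE above 15 were retained; each was a mini-protein under 80 residues with no cysteine, in a PA-tagged cDNA display construct. After digestion with trypsin and chymotrypsin and sequencing, K50 was inferred by Bayesian fitting of counts, and unfolding free energy was derived per protease or combined against a sequence-predicted unfolded-state K50 and a shared folded-state K50.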

[2] = folding stability dG unfold (combined trypsin and chymotrypsin); higher = more stable
Summary of the method: as §1

[3] = folding stability dG unfold from trypsin proteolysis; higher = more stable
Summary of the method: as §1

Sequence	folding stability dG unfold [1] [kcal/mol]	folding stability dG unfold [2] [kcal/mol]	folding stability dG unfold [3] [kcal/mol]
SPDVKILDIERHPDDGSISIKLKFPDGWPVTLHYNPDGSHTIHNPGNGAPIQIKYDGNQLKIELPDNLKFSA [r9_233_TrROS]	0.868 ± 0.086	0.729 ± 0.083	0.478 ± 0.023
SALPPGAPPKPERLVLTLTVSEEEVKKGDLEKVRRLVEELVEALREAGFEVKEVEVVEEDGKLTVRIVLDSA [r9_75_TrROS_Hall]	2.68 ± 0.17	2.92 ± 0.36	3.04 ± 0.26
SAGGSAGGSAGSTLTVTLTVRDPANPGTTTTVTLTLEVEPAPPPEVVVVKDANGNETLVPSAGGSAGGSAGG [r11_419_TrROS_Hall]	1.91 ± 0.052	1.63 ± 0.061	1.29 ± 0.047
SAGGKWIMFMIPPGEEIEDPNGLEIRYDPEEGEFEIENNKRPVKIPVHPHPDGWYMITIEIPPGVEVSAGGS [r16_245_TrROS]	1.12 ± 0.23	1.55 ± 0.22	1.5 ± 0.074
SAGGSAGGSAGGEKVVVPPPEVELRLERREDGYVRLYARNKDGEWEEVAVFKVSPEELELSAGGSAGGSAGG [r7_659_TrROS_Hall]	3.77 ± 0.13	3.37 ± 0.32	3.09 ± 0.19
SAGGSAGGSAGGVKKGDKVTVLRVRLELKIKVEKTEDGSLKLTAELKLEISLVTVTAPDSAGGSAGGSAGGS [r10_297_TrROS_Hall]	5.2 ± 0.15	5.06 ± 0.21	3.53 ± 0.14
SKTIMIPANMPIDFIRKIARNAAKNGPPVKITIMIPDNPKIKEWLEEAGFPVEIERNKENNMQMITIEVPSA [r9_759_TrROS]	1.95 ± 0.028	1.91 ± 0.07	1.8 ± 0.029
SAGPPEFELVGEFEAEAPGGVPVRVRVIRLPGGDVLVVVTHPDDTVTLGFIPAETGEWHLALSFPADVLSAG [r5_750_TrMRF]	2.369 ± 0.014	2.58 ± 0.057	2.82 ± 0.057
SAGGSAGGSAGKPIKLEEVLEKLNPEKIESVFVFPPIPYVVVLLKDSNGNKKIIVVKEDKSAGGSAGGSAGG [r17_374_TrMRF]	0.922 ± 0.21	0.837 ± 0.13	0.695 ± 0.019
SAGMTIVIEIPSSTSYEDAVKAIKKIAKEIKEKGKKFKIVVLTKDPKIAEAIKKALEELGIPLEVKIGSAGG [r19_268_TrMRF]	2.91 ± 0.043	2.93 ± 0.059	2.77 ± 0.07
SAGGSAGGSAGKKKLVVVVDPEEPGRVRIYRDGKVIEMSLEELKKLGIDEVVSVEELLAKSAGGSAGGSAGG [r17_88_TrROS_Hall]	2.34 ± 0.026	1.96 ± 0.09	1.03 ± 0.04
SAGGSAGGSSTLTLTVRVEVTVEVDGKTYTFTAELTLTVELPPLPEEDLKLYRTDDGELRLVRSAGGSAGGS [r12_1031_TrROS_Hall]	2.91 ± 0.24	2.88 ± 0.47	2.94 ± 0.21
SAGGSKAKIVEAEIVEFDPEKGKITIRIKANGKTFEIEFPPGVKKIKLKVKLENGEEKEIEITIKPSAGGSA [r2_132_TrROS_Hall]	3.01 ± 0.14	2.59 ± 0.16	1.85 ± 0.044
SKEKYKKPIKFTVKIEEGPVTENGEKYIKIEITYPGGYTATIIITPKKIEIKSNVPNPEKVKELVKKLVKSA [r9_662_TrMRF]	2.81 ± 0.14	2.5 ± 0.28	1.62 ± 0.15
SAGGSAGGSAGGGMVLKTEPVVITSTSTAPTEDGKWITTTSTLVVTKELILPSTLPGLLSAGGSAGGSAGGS [r10_1133_JUSTAS]	0.276 ± 0.11	0.34 ± 0.096	0.173 ± 0.028
SGPVPLPVEVTFEPNSETTVTLPSGRTYTVPTPPNGSATATADPATGVVTITVTSGSSTTTLTFPVPAELSA [r9_226_JUSTAS]	0.712 ± 0.033	0.592 ± 0.051	0.361 ± 0.006
SAGGSALLEALKKLAEELGLEVELEEVRVETETRTETRTLPDGRTETRTETEVRVEVKVTVRPKPASAGGSA [r15_561_TrROS_Hall]	2.72 ± 0.1	2.71 ± 0.082	2.59 ± 0.075
SAGGSAGGKLVIGVFIPGLTPEQAEALVKLLEALGYPKENVTVVVFNVPALPPPGLEELLTKNGSAGGSAGG [r6_243_TrMRF]	2.75 ± 0.042	2.45 ± 0.16	1.77 ± 0.071
SAGGSAGGSASITFMLMKFDPEDNRVEVYTYKIKIERDPNGLKKFKIEPVKRQRINPDDLKAISAGGSAGGS [r12_374_TrROS]	3.48 ± 0.09	2.98 ± 0.25	2.13 ± 0.12
SAGGSAGGSAPFNINDPNIGEVEIFPGPNAVILIKLPDGGYLVITNNGEDNVSIELVSDDESAGGSAGGSAG [r3_62_TrMRF]	0.468 ± 0.16	1.15 ± 0.15	1.72 ± 0.13
SAGGSAGGSAPPNVEIKLTMEPYKPPDGNKYYRIPIEVNKKPWQAKEIADWLQPEGFRIEPSAGGSAGGSAG [r3_157_TrROS]	0.152 ± 0.41	0.151 ± 0.23	0.238 ± 0.18

Sequence	folding stability dG unfold [1] [kcal/mol]	folding stability dG unfold [2] [kcal/mol]	folding stability dG unfold [3] [kcal/mol]
SAGGSAGGSAGGSSLYVPGKGYIVERDEAKGYLVIKPIEPDGIVPDAEVFYKPPSVPLISAGGSAGGSAGGS [r4_409_JUSTAS]	-0.102 ± 0.43	-0.271 ± 0.19	-0.879 ± 0.22
SAGGSAGGSIPPDVPVDLGAEVEYFPPGGVRRVRFSAPDGTPVATATFVFRGGELVEVRIEPASAGGSAGGS [r12_264_TrMRF]	2.07 ± 0.13	2.05 ± 0.15	1.89 ± 0.053
SAGGSAGGSAGDAPPGATLTLNIELELTLKVVDPSTGELVEERKLRIPLTLTYVLDDDDLSAGGSAGGSAGG [r11_970_TrMRF]	4.24 ± 0.13	3.8 ± 0.43	3.15 ± 0.42
SAGGSAVPKLPTGVEVEPLAVIDPETASPEEIRALLAEHPGPLLVRPSSTGEWRVVPAEELLALLGSAGGSA [r15_904_JUSTAS]	1.19 ± 0.076	1.1 ± 0.071	0.984 ± 0.034
SAGGSARPELVEYRVRIGDVEVRVVLPEGLEELLRRIPDVEVEPVRRFEAPPPPVVLERSELGDFASAGGSA [r15_443_TrMRF]	1.77 ± 0.11	1.71 ± 0.14	1.56 ± 0.051
SAGGSAGGSAGGFIARIEYPDGNTRTINPGMSLDELRNLPPDQIRRVEVEPVPPVPDDEKSAGGSAGGSAGG [r7_190_TrROS]	0.723 ± 0.023	0.499 ± 0.079	-0.225 ± 0.12
SAGGSAGGSAGGWIRSPGGWWVNIDIEIFEIPIDKNMSPEMANKFKRVRIIVIEITVVKRSAGGSAGGSAGG [r7_324_TrROS]	4.7 ± 0.15	3.84 ± 0.25	3.31 ± 0.16
SAMLSPAEIKRPRLLEIIETIKKLGNFSVDIKRLPGDGDVKVKIELDPNKIEEAAKITGIPLSEIKKLVSAG [r14_688_JUSTAS]	0.748 ± 0.1	0.673 ± 0.31	0.923 ± 0.15
SAGGSAGGSAGGDENDYYMVEIPIWRRNENGGWEPIFPIPIMVPKGAPKDVAKDILNNLSAGGSAGGSAGGS [r10_470_TrROS]	0.324 ± 0.12	0.382 ± 0.085	0.361 ± 0.1
SAGGTIEITFMVRTPEEAEDMADMIARMLAREHGMKVTIDDVEVHEYKDPEDGQEYYMVEFRIEIKPSAGGS [r8_171_TrROS]	4.146 ± 0.04	3.88 ± 0.11	3.23 ± 0.081
SASEDETVETTTTTTSTFTLPNGETVTLTTTTKTTEKILPETGEVVESTTTTTTVTRTDASTTTTVATSSAG [r14_333_JUSTAS]	1.22 ± 0.082	1.27 ± 0.11	1.12 ± 0.068
SAGGSAGGSAKPEAVAPAVFTLDGVPYLVPVRVLEAGLSPDQKLLVLGTLPNGEPFLAVFDASAGGSAGGSA [r18_54_TrMRF]	1.57 ± 0.082	1.27 ± 0.12	0.744 ± 0.058
SMKSKISEIKSVEKKGNKVVVKVKIKAPKGKAYFIDSNGNIIKEVNLGKEVELEITFDSNNESFKVIVTDSA [r9_917_TrMRF]	1.99 ± 0.032	1.84 ± 0.099	1.34 ± 0.065
SAGGSAGGSAMQPIRIKITLYNPDNGDTRTYTVEVPDPNMSLDAIAKQLPPGYRIKKVSIMSAGGSAGGSAG [r3_80_TrROS]	3.815 ± 0.033	3.68 ± 0.13	3.38 ± 0.13
PWVMIPIRVDDPNMTIREIANEVRKALPPGNKNLKISIMWGDGRRYEIDPGETLKDHFPPGDEFHIMVRLPS [r1_56_TrROS]	1.3 ± 0.086	1.55 ± 0.048	1.65 ± 0.02
SAKKKVVVEIEIPKEDMSKEEVKEALREAAKELGLELPEEEIEKLVEEARKKGLSIEEVLRKLKEEGLLSAG [r14_364_TrROS_Hall]	1.47 ± 0.054	1.12 ± 0.12	0.693 ± 0.056
SAGEREELLERAKELARKLAEELGVEVEVTVTVEERDDSVTITVTVTVRNEDGSTHTFTFTFTLKKEDLSAG [r5_609_TrROS_Hall]	5.55 ± 0.2	5.43 ± 0.13	3.83 ± 0.14
SAGGSAGGSAGGSKLKIELNEDGTLRIVNEDTNEVYEIKLELPPPPPVETEVKYVSLEDLSAGGSAGGSAGG [r11_352_TrROS_Hall]	0.842 ± 0.26	0.47 ± 0.31	0.604 ± 0.18
SAGGSGTMKVEVSKDGGKLTVKSEFPSGGYGVSDDSGKLATLEYDPEKGTTTVTFPDGTVRTLTYPGSAGGS [r16_602_JUSTAS]	0.647 ± 0.089	0.501 ± 0.12	0.0159 ± 0.11
SAGEPIRIKIMIMNPDGKLRPIVEIPIPPDDIKEIEIKDDSIEIELPGDGKTLMFRINNYPIMIQIEDSAGG [r19_408_TrROS]	3.2 ± 0.036	2.77 ± 0.11	2.06 ± 0.029
SAEPEVEYVVIELEVTIELAPGQEAPTADEIAEALRAALEAAGAEITSVEVEVRDGQVTVRVTIVLPKKASA [r9_1134_TrROS_Hall]	3.51 ± 0.17	3.6 ± 0.16	3.53 ± 0.086
